Measured values: patent publication US20040005550A1, “Methods and compositions useful for targeting activated vitronectin receptor alphavbeta3” (The Scripps Research Institute, priority 1998, published 2004)

Molecular target: T1, αvβ3 expressed in CHO cells (Homo sapiens, UniProt P05106+P06756)
T1 construct: cDNAs encoding full-length human αv and β3 were subcloned into pcDNA3 and pCDM8; expressed in transfected cells
Experiment: Flow cytometry ligand binding to αvβ3-CHO cells
Conditions: in presence of antibody AP5; 2 mM RGDS, 50 μM cRGDfV, 1 μM Integrilin, 100 μg/ml LM609
Method: Binding of aPB, WOW-1 Fab and FITC-fibrinogen to cells was assessed by flow cytometry. Typically, cells were cultured overnight in low serum medium (e.g., 0.5% fetal bovine serum), resuspended in incubation buffer at 1-1.5×10^7 cells/ml, and 4-6×10^5 cells were incubated with one of these ligands for 30 min at room temperature in a final volume of 50 μl. […] In some experiments, ligand binding and αvβ3 expression were measured simultaneously by incubation of cells with ligands in the presence of biotin-SSA6 (7 μg/ml), a non-function-blocking anti-β3 monoclonal antibody (Abrams, C., Deng, J., Steiner, B., and Shattil, S. J. (1994) J. Biol. Chem. 269, 18781-18788). After 30 min at room temperature, cells were washed and incubated with phycoerythrin-streptavidin (1:25 final dilution; Molecular Probes) for 20 min on ice. In the case of WOW-1 Fab, an Alexa-conjugated anti-(His)6 monoclonal antibody (Accurate Chemical and Scientific Corp., Westbury, N.Y.) was added at this stage (50 μg/ml). Cells were washed and resuspended in 0.5 ml incubation buffer containing 2 μg/ml propidium iodide (Sigma, St. Louis, Mo.). Ligand binding (FL1 channel) was analyzed immediately on the gated subset of live cells (propidium iodide-negative, FL3) that was strongly positive for αvβ3 expression (FL2). […]

T1 sequence (P06756 31-889 limits assumed): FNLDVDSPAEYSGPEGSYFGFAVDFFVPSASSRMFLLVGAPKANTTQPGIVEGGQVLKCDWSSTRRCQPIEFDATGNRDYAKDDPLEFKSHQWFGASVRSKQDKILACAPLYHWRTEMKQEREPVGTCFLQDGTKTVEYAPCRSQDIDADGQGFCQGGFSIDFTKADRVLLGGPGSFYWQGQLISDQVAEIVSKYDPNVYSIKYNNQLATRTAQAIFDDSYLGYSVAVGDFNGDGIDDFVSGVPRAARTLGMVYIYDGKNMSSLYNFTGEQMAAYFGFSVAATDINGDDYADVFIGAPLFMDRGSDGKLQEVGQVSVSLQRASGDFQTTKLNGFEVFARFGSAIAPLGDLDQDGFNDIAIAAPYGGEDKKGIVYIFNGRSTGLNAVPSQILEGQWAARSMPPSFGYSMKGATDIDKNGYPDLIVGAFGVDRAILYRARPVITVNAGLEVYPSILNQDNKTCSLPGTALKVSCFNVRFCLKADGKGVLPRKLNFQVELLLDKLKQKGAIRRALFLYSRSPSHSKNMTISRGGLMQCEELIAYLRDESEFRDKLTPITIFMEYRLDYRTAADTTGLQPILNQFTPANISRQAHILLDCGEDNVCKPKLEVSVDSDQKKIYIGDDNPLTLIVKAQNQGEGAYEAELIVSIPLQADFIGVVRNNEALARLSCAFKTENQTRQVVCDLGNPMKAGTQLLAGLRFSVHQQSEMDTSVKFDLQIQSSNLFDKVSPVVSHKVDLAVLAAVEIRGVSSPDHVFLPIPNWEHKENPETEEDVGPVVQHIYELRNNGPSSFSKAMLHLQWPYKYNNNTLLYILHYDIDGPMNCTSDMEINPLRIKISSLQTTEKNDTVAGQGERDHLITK
T1 sequence (P06756 891-1048 partner limits assumed): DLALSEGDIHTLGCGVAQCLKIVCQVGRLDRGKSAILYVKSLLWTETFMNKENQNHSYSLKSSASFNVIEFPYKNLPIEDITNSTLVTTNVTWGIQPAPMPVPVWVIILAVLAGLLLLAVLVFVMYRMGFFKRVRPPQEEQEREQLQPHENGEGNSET
T1 sequence (P05106 27-788): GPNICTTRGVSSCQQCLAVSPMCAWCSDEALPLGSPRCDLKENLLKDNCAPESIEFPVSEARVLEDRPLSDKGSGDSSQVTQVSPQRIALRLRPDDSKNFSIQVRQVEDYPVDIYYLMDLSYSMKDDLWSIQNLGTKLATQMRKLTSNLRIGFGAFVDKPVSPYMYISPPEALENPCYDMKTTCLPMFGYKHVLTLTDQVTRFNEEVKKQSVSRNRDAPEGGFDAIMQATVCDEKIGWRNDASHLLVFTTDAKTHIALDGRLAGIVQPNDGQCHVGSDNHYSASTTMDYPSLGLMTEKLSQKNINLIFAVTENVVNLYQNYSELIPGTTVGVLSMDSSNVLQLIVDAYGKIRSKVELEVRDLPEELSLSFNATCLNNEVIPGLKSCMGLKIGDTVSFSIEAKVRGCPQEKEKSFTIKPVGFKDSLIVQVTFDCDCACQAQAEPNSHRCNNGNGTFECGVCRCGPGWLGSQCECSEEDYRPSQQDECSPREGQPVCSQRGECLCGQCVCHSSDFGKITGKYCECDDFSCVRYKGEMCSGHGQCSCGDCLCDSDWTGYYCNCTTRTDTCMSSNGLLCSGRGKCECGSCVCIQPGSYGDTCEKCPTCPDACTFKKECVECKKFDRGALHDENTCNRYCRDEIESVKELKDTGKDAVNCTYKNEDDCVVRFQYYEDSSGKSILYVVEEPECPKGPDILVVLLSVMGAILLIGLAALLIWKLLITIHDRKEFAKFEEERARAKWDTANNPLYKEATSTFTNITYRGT

- inhibition of aPB and WOW-1 Fab binding: more than 70%
B1: LM609: αvβ3-specific function-blocking monoclonal antibody (antibody, V domains shown)
VH: EVQLEESGGGLVKPGGSLKLSCAASGFAFSSYDMSWVRQIPEKRLEWVAKVSSGGGSTYYLDTVQGRFTISRDNAKNTLYLQMSSLNSEDTAMYYCARHNYGSFAYWGQGTLVTVSA
VL: ELVMTQTPATLSVTPGDSVSLSCRASQSISNHLHWYQQKSHESPRLLIKYASQSISGIPSRFSGSGSGTDFTLSINSVETEDFGMYFCQQSNSWPHTFGGGTKLEIKRA
